Data reported in article PMC5777261 (The Journal of Biological Chemistry, 2017).
Values belong to the substance of their own block, whether it stands above or below them.

Assays:
Test in all cases: radioligand binding; HEK293 cells expressing ACKR3-YFP or mutants, pretreated 5 min at 37 °C with 100 μM phenylarsine oxide; 50 pM 125I-CXCL12 tracer in 50 mM HEPES pH 7.4, 5 mM MgCl2, 1 mM CaCl2, 0.2% BSA, with or without unlabeled CXCL12 or CXCL11, 30 min at 37 °C; bound label counted in a γ counter; IC50 taken as proxy for ligand affinity
ACKR3 Y315A-YFP = ACKR3 Y315A-YFP (UniProt P25106)
ACKR3 Y315A-YFP, sequence (P25106 whole entry Y315A): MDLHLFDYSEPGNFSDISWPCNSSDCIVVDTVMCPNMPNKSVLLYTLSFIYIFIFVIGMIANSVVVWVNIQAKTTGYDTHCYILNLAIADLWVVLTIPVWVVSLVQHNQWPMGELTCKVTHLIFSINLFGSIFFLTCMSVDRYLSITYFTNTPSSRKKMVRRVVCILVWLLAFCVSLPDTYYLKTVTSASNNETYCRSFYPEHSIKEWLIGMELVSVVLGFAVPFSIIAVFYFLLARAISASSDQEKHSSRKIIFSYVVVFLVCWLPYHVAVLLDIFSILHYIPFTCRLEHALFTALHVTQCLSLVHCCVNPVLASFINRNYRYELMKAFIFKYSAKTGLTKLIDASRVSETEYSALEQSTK

ACKR3 N127K-YFP = ACKR3 N127K-YFP (UniProt P25106)
ACKR3 N127K-YFP, sequence (P25106 whole entry N127K): as the sequence (P25106 whole entry Y315A) above, with N127K, A315Y counted along it

ACKR3 N127D-YFP = ACKR3 N127D-YFP (UniProt P25106)
ACKR3 N127D-YFP, sequence (P25106 whole entry N127D): as the sequence (P25106 whole entry Y315A) above, with N127D, A315Y counted along it

ACKR3 N127S-YFP = ACKR3 N127S-YFP (UniProt P25106)
ACKR3 N127S-YFP, sequence (P25106 whole entry N127S): as the sequence (P25106 whole entry Y315A) above, with N127S, A315Y counted along it

ACKR3 R142A-YFP = ACKR3 R142A-YFP (UniProt P25106)
ACKR3 R142A-YFP, sequence (P25106 whole entry R142A, the tested form may be a part): as the sequence (P25106 whole entry Y315A) above, with R142A, A315Y counted along it

[1] = target: ACKR3-YFP (wildtype ACKR3 fused C-terminally to YFP) (UniProt P25106)
ACKR3-YFP (wildtype ACKR3 fused C-terminally to YFP), sequence (P25106 whole entry, the tested form may be a part): as the sequence (P25106 whole entry Y315A) above, with A315Y counted along it

ACKR3 D90N-YFP = ACKR3 D90N-YFP (UniProt P25106)
ACKR3 D90N-YFP, sequence (P25106 whole entry D90N): as the sequence (P25106 whole entry Y315A) above, with D90N, A315Y counted along it

ACKR3 D141N-YFP = ACKR3 D141N-YFP (UniProt P25106)
ACKR3 D141N-YFP, sequence (P25106 whole entry D141N): as the sequence (P25106 whole entry Y315A) above, with D141N, A315Y counted along it

ACKR3 Y143A-YFP = ACKR3 Y143A-YFP (UniProt P25106)
ACKR3 Y143A-YFP, sequence (P25106 whole entry Y143A): as the sequence (P25106 whole entry Y315A) above, with Y143A, A315Y counted along it

^125I-CXCL12 radiolabel tracer, sequence (P48061 22-93): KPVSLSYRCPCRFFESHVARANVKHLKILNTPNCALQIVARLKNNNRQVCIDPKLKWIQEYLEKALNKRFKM
CXCL12 (unlabeled recombinant chemokine), sequence (P48061 22-93): as above

IC50 (ACKR3 Y315A-YFP): 24.7 nM
Log IC50 (ACKR3 Y315A-YFP): -7.7
IC50 (ACKR3 N127K-YFP): 9.9 nM
Log IC50 (ACKR3 N127K-YFP): -8.1
IC50 (ACKR3 N127D-YFP): 10.9 nM
Log IC50 (ACKR3 N127D-YFP): -8.2
IC50 (ACKR3 N127S-YFP): 1.7 nM
Log IC50 (ACKR3 N127S-YFP): -8.8
IC50 (ACKR3 R142A-YFP): 45.1 nM
Log IC50 (ACKR3 R142A-YFP): -7.4
IC50 [1]: 5.9 nM
Log IC50 [1]: -8.2
IC50 (ACKR3 D90N-YFP): 12.1 nM
Log IC50 (ACKR3 D90N-YFP): -7.9
Log IC50 (ACKR3 D141N-YFP): -9.1
IC50 (ACKR3 Y143A-YFP): 3 nM
Log IC50 (ACKR3 Y143A-YFP): -8.5
Substance: CXCL12 (unlabeled recombinant chemokine) (from UniProt P48061 22-93) (ligand)

125I-CXCL12 tracer binding, % of ACKR3 (the pair that is blocked) (ACKR3 Y315A-YFP): 69%
125I-CXCL12 tracer binding, % of ACKR3 (the pair that is blocked) (ACKR3 N127K-YFP): 83%
125I-CXCL12 tracer binding, % of ACKR3 (the pair that is blocked) (ACKR3 N127D-YFP): 70%
125I-CXCL12 tracer binding, % of ACKR3 (the pair that is blocked) (ACKR3 N127S-YFP): 87%
125I-CXCL12 tracer binding, % of ACKR3 (the pair that is blocked) (ACKR3 R142A-YFP): 66%
125I-CXCL12 tracer binding, % of ACKR3 (the pair that is blocked) [1]: 100%
125I-CXCL12 tracer binding, % of ACKR3 (the pair that is blocked) (ACKR3 D90N-YFP): 92%
125I-CXCL12 tracer binding, % of ACKR3 (the pair that is blocked) (ACKR3 D141N-YFP): 64%
125I-CXCL12 tracer binding, % of ACKR3 (the pair that is blocked) (ACKR3 Y143A-YFP): 93%
Substance: ^125I-CXCL12 radiolabel tracer (from UniProt P48061 22-93) (ligand)
